Columns and labels:
Utp4 [1] = molecular target: T1, Utp4 (UniProt Q06679 1-776); test: co-purification; purified Utp5–Utp15 CTD complex, Utp8–Utp9 CTD complex and His6-tagged Utp4 mixed; HisTrap and gel filtration; conditions: both partners purified
T1 construct: Utp4, subunit of UtpA; S. cerevisiae is surmised from PDB 5WLC and the printed residue numbers; also called His6-tagged Utp4; Upt4; source: E. coli BL21(DE3), purified (HisTrap, heparin)
T1 sequence: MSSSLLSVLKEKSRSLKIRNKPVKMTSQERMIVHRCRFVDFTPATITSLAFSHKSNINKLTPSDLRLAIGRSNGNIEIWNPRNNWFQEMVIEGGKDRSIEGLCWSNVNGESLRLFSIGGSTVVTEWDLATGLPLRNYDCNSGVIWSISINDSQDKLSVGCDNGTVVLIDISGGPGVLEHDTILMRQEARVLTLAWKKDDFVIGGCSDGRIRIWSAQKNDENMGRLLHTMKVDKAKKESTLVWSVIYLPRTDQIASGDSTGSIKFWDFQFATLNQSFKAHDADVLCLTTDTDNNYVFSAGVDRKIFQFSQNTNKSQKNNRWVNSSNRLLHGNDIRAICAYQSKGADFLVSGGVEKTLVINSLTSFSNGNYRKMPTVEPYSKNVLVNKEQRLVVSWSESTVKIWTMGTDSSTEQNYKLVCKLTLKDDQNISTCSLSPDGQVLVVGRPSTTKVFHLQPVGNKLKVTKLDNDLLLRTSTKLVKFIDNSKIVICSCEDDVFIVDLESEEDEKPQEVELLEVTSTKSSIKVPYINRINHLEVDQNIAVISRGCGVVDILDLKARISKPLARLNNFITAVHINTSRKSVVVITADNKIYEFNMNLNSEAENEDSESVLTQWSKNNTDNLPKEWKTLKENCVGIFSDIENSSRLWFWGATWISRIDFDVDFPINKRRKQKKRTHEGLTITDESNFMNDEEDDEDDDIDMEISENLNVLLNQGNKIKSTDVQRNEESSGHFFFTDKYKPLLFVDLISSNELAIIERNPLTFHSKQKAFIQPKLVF

Utp4 [2] = molecular target: T1, Utp4; test: cross-linking; UtpA sub-complex (0.5 μg/μL) with 0.5 mM BS^3 at RT for 45 min, quenched with 20 mM NH4HCO3; LC-MS/MS; conditions: both partners purified

B1: Utp5–Utp15 CTD complex (complex)
chain 1: TTGTVTVILSQALQSNDHSLLETVLNNRDERVIRDTIFRLKPALAVILLERLAERIARQTHRQGPLNVWVKWCLIIHGGYLVSIPNLMSTLSSLHSTLKRRSDLLPRLLALDARLDCTINKFKTLNYEAGDIHSSEPVVEEDEDDVEYNEELDDAGLIE
chain 2: RSQRRMRAFERNINQFKWSEALDNAFVPGMAKELTLTVLQELRKRGKVRVALYGRDESTLEPLLNWCLKGIEDVRSASIVADWVAVVLELYGNTLESSPVLQELMIDLKTKVRHEIHKSKEAQRIEGMLQLLTS
notes: Utp5 residues 433-591, as m14; Utp15 residues 380-513, as m15; This complex was formed before it was mixed with His6-Utp4
Utp4 [1]
  binding result: binds

B2: CTD of Utp15 (residue 380-513) (domain or fragment, UniProt Q04305 380-513, looked up)
chain: RSQRRMRAFERNINQFKWSEALDNAFVPGMAKELTLTVLQELRKRGKVRVALYGRDESTLEPLLNWCLKGIEDVRSASIVADWVAVVLELYGNTLESSPVLQELMIDLKTKVRHEIHKSKEAQRIEGMLQLLTS
notes: Utp15, subunit of UtpA, residues 380-513; The tags were cleaved with Ulp1; also called Utp15 CTD
Utp4 [2]
  binding result: binds

B3: C-terminal domain (CTD) of Utp5 (residue 433-591) (domain or fragment, UniProt Q04177 433-591, looked up)
chain: TTGTVTVILSQALQSNDHSLLETVLNNRDERVIRDTIFRLKPALAVILLERLAERIARQTHRQGPLNVWVKWCLIIHGGYLVSIPNLMSTLSSLHSTLKRRSDLLPRLLALDARLDCTINKFKTLNYEAGDIHSSEPVVEEDEDDVEYNEELDDAGLIE
notes: Utp5, subunit of UtpA, residues 433-591; The tags were cleaved with Ulp1; also called Utp5 CTD
Utp4 [2]
  binding result: binds

B4: Utp8–Utp9 CTD complex (complex)
chain 1: DYPKTLTFLLTHPLFPLSRTRNLLSLLRDQPRLFKQAIVTCPNLPLNELLEELFSIRNRELLLDISFRILQDFTRDSIKQEMKKLSKLDVQNFIEFITSGGEDSSPECFNPSQSTQLFQLLSLVLDSIGLFSLEGALLENLTLYIDKQVEIAERNTELWNLIDTKGFQHGFASSTFDNGTSQKRALPTYTMEYLDI
chain 2: QPEVQHEKKETETKINKKVSKSDQVEIANILSSHLEANSTEILDDLMSGSWTEPEIKKFILTKINTVDHLSKIFLTISKSITQNPWNEENLLPLWLKWLLTLKSGELNSIKDKHTKKNCKHLKSALRSSEEILPVLLGIQGRLEMLRRQAKLREDLAQLSMQEGEDDEIEVIEHSNVISNPLQDQASPVEKLEPDSIVYANGESDEFVD
notes: Utp9 residues 361-569, as m17; This complex was formed before it was mixed with His6-Utp4
Utp4 [1]
  binding result: binds
